Source: the supplement of paper PMC9732359
± gives the uncertainty stated by the source.

Test: protein stability index of a GFP-peptide fusion (yeast GPS) (PSI 1-4); higher = more stable; sorted into four equal gates, so the index is relative within each strain
How it was run: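 Each library plasmid carries Cherry plus GFP with a tiled 17-residue yeast protein peptide fused downstream, and the pooled library was carried in yeast. Mid-log cultures in leucine-free medium were sorted into four equal gates by GFP/Cherry ratio. Reads from Illumina sequencing of PCR-amplified plasmids from each gate were assigned to strains by barcodes. Per peptide, the protein stability index was computed as the summed products of gate read frequency and gate number.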

FENCYLEGNDIHALAAK [FAS1]
protein stability index (doa10∆): 2.83 ± 0.053
protein stability index (pdr5∆): 3.06 ± 0.049
protein stability index (san1∆): 2.88 ± 0.044
protein stability index (ubr1∆): 2.69 ± 0.041

DYMYENGKLTSANERLF [YML031W/NDC1]
protein stability index (doa10∆): 3.37 ± 0.17
protein stability index (pdr5∆): 3.28 ± 0.11
protein stability index (san1∆): 3.1 ± 0.11
protein stability index (ubr1∆): 3.23 ± 0.095

KYFTELSHYIRQCFQDN [MED1]
protein stability index (doa10∆): 2.38 ± 0.053
protein stability index (pdr5∆): 2.35 ± 0.06
protein stability index (san1∆): 1.92 ± 0.089
protein stability index (ubr1∆): 2.5 ± 0.038

VNVEKFNVEYFAKEKLT [RPL6A]
protein stability index (doa10∆): 1.84 ± 0.039
protein stability index (pdr5∆): 1.96 ± 0.044
protein stability index (san1∆): 2.08 ± 0.069
protein stability index (ubr1∆): 2.37 ± 0.036

ESDLYKLKECPFDMGGY [RPB2]
protein stability index (doa10∆): 3.13 ± 0.076
protein stability index (pdr5∆): 3.25 ± 0.087
protein stability index (san1∆): 3.22 ± 0.068
protein stability index (ubr1∆): 3.34 ± 0.036

NDFANNLPKEGDIVLTR [CSL4]
protein stability index (doa10∆): 2.89 ± 0.15
protein stability index (pdr5∆): 3.32 ± 0.17
protein stability index (san1∆): 2.44 ± 0.12
protein stability index (ubr1∆): 2.97 ± 0.19

KTSSQTSLSSKDLSNYR [YMR153W/NUP53]
protein stability index (doa10∆): 2.67 ± 0.055
protein stability index (pdr5∆): 2.54 ± 0.06
protein stability index (san1∆): 2.58 ± 0.089
protein stability index (ubr1∆): 2.65 ± 0.039

NVYVGMTDMQIQWYKSL [ISW2]
protein stability index (doa10∆): 1.96 ± 0.057
protein stability index (pdr5∆): 2.41 ± 0.059
protein stability index (san1∆): 1.99 ± 0.072
protein stability index (ubr1∆): 3.14 ± 0.069

LSIDKVLKKPNRAMEYD [RET1]
protein stability index (doa10∆): 3.01 ± 0.18
protein stability index (pdr5∆): 2.56 ± 0.16
protein stability index (san1∆): 3.18 ± 0.2
protein stability index (ubr1∆): 1.98 ± 0.28

VAGGVAGGEAGEAEAEK [RPP1A]
protein stability index (pdr5∆): 3.26 ± 0.17
protein stability index (ubr1∆): 3.45 ± 0.13

PAKVEDVQKSSDSSSED [YLR335W/NUP2]
protein stability index (doa10∆): 2.84 ± 0.1
protein stability index (pdr5∆): 2.41 ± 0.097
protein stability index (san1∆): 2.4 ± 0.11
protein stability index (ubr1∆): 1.65 ± 0.053

LSSDDLLGKESFKKIIK [YCS4]
protein stability index (doa10∆): 3.25 ± 0.19
protein stability index (pdr5∆): 3.08 ± 0.22
protein stability index (san1∆): 3.39 ± 0.063
protein stability index (ubr1∆): 3.57 ± 0.1

VVGQLFQIDNDNIRYAT [SMC2]
protein stability index (doa10∆): 2.67 ± 0.067
protein stability index (pdr5∆): 2.67 ± 0.066
protein stability index (san1∆): 2.65 ± 0.065
protein stability index (ubr1∆): 2.88 ± 0.078

LFEQIGIRIKGKIVGFD [SME1]
protein stability index (doa10∆): 1.92 ± 0.12
protein stability index (pdr5∆): 1.85 ± 0.1
protein stability index (san1∆): 1.48 ± 0.2
protein stability index (ubr1∆): 1.89 ± 0.096

IAAERAARKAANKEKRA [RPL7B]
protein stability index (doa10∆): 3.27 ± 0.16
protein stability index (pdr5∆): 3.59 ± 0.21
protein stability index (san1∆): 3.28 ± 0.22
protein stability index (ubr1∆): 3.3 ± 0.17

AELIGLQPIFKGEEAKL [SSN3]
protein stability index (doa10∆): 2.54 ± 0.18
protein stability index (pdr5∆): 1.57 ± 0.16
protein stability index (ubr1∆): 1.33 ± 0.2

KIIPKDISATQLPKQLW [ITC1]
protein stability index (doa10∆): 2.22 ± 0.11
protein stability index (pdr5∆): 2.43 ± 0.14
protein stability index (san1∆): 2.45 ± 0.12
protein stability index (ubr1∆): 2.32 ± 0.13

EINYAFSMDEEFKNMDC [SIR3]
protein stability index (doa10∆): 3.09 ± 0.068
protein stability index (pdr5∆): 3.14 ± 0.053
protein stability index (san1∆): 3.22 ± 0.04
protein stability index (ubr1∆): 3.25 ± 0.048

NNPDMMIQPPQQGQNMS [ROX3]
protein stability index (pdr5∆): 2.92 ± 0.12
protein stability index (san1∆): 3.05 ± 0.12
protein stability index (ubr1∆): 3.14 ± 0.14

CVYSGLIPDGRHLVNRG [PRE10]
protein stability index (pdr5∆): 1.82 ± 0.22
protein stability index (san1∆): 2.1 ± 0.14

KRLLYTRRFVNVTLVNG [RPS30A]
protein stability index (doa10∆): 2.03 ± 0.051
protein stability index (pdr5∆): 1.44 ± 0.04
protein stability index (san1∆): 1.62 ± 0.099
protein stability index (ubr1∆): 1.91 ± 0.059

NVPSTKFNAAPEENATE [SNF12]
protein stability index (doa10∆): 3.21 ± 0.067
protein stability index (pdr5∆): 3.35 ± 0.07
protein stability index (san1∆): 3.17 ± 0.058
protein stability index (ubr1∆): 3.12 ± 0.055

MPGSQINSPMPQQAQMQ [SNF2]
protein stability index (doa10∆): 2.9 ± 0.081
protein stability index (pdr5∆): 2.87 ± 0.096
protein stability index (san1∆): 3.05 ± 0.07
protein stability index (ubr1∆): 2.95 ± 0.097

GANTSAAQTLLQMDYKD [PRE9]
protein stability index (doa10∆): 3 ± 0.061
protein stability index (pdr5∆): 3.13 ± 0.058
protein stability index (san1∆): 3.09 ± 0.048
protein stability index (ubr1∆): 2.96 ± 0.051

SDIPKTTVQVAEEAIVN [PRE4]
protein stability index (doa10∆): 2.92 ± 0.12
protein stability index (pdr5∆): 2.72 ± 0.09
protein stability index (san1∆): 1.81 ± 0.28
protein stability index (ubr1∆): 2.54 ± 0.091

MTRSSVLADALNAINNA [RPS22A]
protein stability index (doa10∆): 2.86 ± 0.052
protein stability index (pdr5∆): 3.27 ± 0.056
protein stability index (san1∆): 2.72 ± 0.054
protein stability index (ubr1∆): 2.99 ± 0.045

TSILELGQLYVTMGAKD [RPN6]
protein stability index (doa10∆): 3.23 ± 0.11
protein stability index (pdr5∆): 2.85 ± 0.083
protein stability index (san1∆): 2.96 ± 0.071
protein stability index (ubr1∆): 2.96 ± 0.059

EFVHKYLGEGPRMVRDV [RPT3]
protein stability index (doa10∆): 3.39 ± 0.14
protein stability index (pdr5∆): 3.43 ± 0.084
protein stability index (san1∆): 3.14 ± 0.062
protein stability index (ubr1∆): 3.17 ± 0.077

KLYTFLARRTDAPFNKV [RPL18A]
protein stability index (doa10∆): 1.78 ± 0.052
protein stability index (pdr5∆): 1.65 ± 0.042
protein stability index (san1∆): 1.97 ± 0.079
protein stability index (ubr1∆): 1.89 ± 0.068

LFEQLQTVSNKEDAKAT [SRP54]
protein stability index (doa10∆): 3.41 ± 0.14
protein stability index (pdr5∆): 3.04 ± 0.1
protein stability index (san1∆): 3.18 ± 0.054
protein stability index (ubr1∆): 3.18 ± 0.059

YMRKQVGVGKLNKLYGG [RPS19A]
protein stability index (doa10∆): 2.99 ± 0.16
protein stability index (pdr5∆): 2.48 ± 0.17
protein stability index (san1∆): 2.89 ± 0.14
protein stability index (ubr1∆): 3.41 ± 0.12

DLCSSVLSQFERSYPSE [ROX3]
protein stability index (doa10∆): 2.58 ± 0.094
protein stability index (pdr5∆): 3.42 ± 0.17
protein stability index (san1∆): 2.98 ± 0.074
protein stability index (ubr1∆): 3.17 ± 0.086

KFADGFLIHSGQPVNDF [RPS3]
protein stability index (doa10∆): 2.67 ± 0.059
protein stability index (pdr5∆): 3.07 ± 0.097
protein stability index (san1∆): 3.22 ± 0.074
protein stability index (ubr1∆): 3.06 ± 0.087

TYQTERFTKFSDTLKEF [YDL116W/NUP84]
protein stability index (doa10∆): 2.38 ± 0.047
protein stability index (pdr5∆): 2.31 ± 0.056
protein stability index (san1∆): 1.73 ± 0.12
protein stability index (ubr1∆): 1.97 ± 0.046

LMAQIFFGPTYYQRLRH [RPB2]
protein stability index (doa10∆): 2.02 ± 0.035
protein stability index (pdr5∆): 1.81 ± 0.032
protein stability index (san1∆): 2.08 ± 0.048
protein stability index (ubr1∆): 2.04 ± 0.031

EIYKQLNDRQEEISRLQ [YIL149C/MLP2]
protein stability index (doa10∆): 3.42 ± 0.08
protein stability index (pdr5∆): 3.57 ± 0.078
protein stability index (san1∆): 3.6 ± 0.041
protein stability index (ubr1∆): 3.38 ± 0.07

KDAEDETSSDGSKSDGS [RPN1]
protein stability index (doa10∆): 3.38 ± 0.051
protein stability index (pdr5∆): 3.41 ± 0.054
protein stability index (san1∆): 3.64 ± 0.047
protein stability index (ubr1∆): 3.29 ± 0.035

TSADLKSKAEELTQVPS [UBP6]
protein stability index (doa10∆): 3.16 ± 0.21
protein stability index (pdr5∆): 3.22 ± 0.12
protein stability index (san1∆): 2.79 ± 0.13
protein stability index (ubr1∆): 3.12 ± 0.18

RKRVYNIKFLSKLEGTI [ESC2]
protein stability index (pdr5∆): 3.51 ± 0.2
protein stability index (ubr1∆): 3.21 ± 0.16

SLGSSSTTASGTTATGT [YGR119C/NUP57]
protein stability index (doa10∆): 3.08 ± 0.072
protein stability index (pdr5∆): 3.31 ± 0.076
protein stability index (san1∆): 3.08 ± 0.067
protein stability index (ubr1∆): 3.18 ± 0.067

DLSEKILNDIETLEHNP [BRR2]
protein stability index (doa10∆): 3.06 ± 0.055
protein stability index (pdr5∆): 3.21 ± 0.07
protein stability index (san1∆): 3.05 ± 0.055
protein stability index (ubr1∆): 3.13 ± 0.043

KDLTLCRYSCLALERMV [YCS4]
protein stability index (doa10∆): 2.58 ± 0.23
protein stability index (pdr5∆): 2.36 ± 0.2
protein stability index (ubr1∆): 1.79 ± 0.13

VLRKQKRYTVKKALAKA [RPL14A]
protein stability index (doa10∆): 2.08 ± 0.14
protein stability index (pdr5∆): 2.14 ± 0.1
protein stability index (ubr1∆): 1.55 ± 0.19

IVQIDATPFRQWFEAHY [RPS8A]
protein stability index (doa10∆): 2.425 ± 0.022
protein stability index (pdr5∆): 2.797 ± 0.025
protein stability index (san1∆): 2.626 ± 0.023
protein stability index (ubr1∆): 2.697 ± 0.019

DKLKDIVGQTSRTVTPA [ITC1]
protein stability index (doa10∆): 3.22 ± 0.059
protein stability index (pdr5∆): 3.13 ± 0.046
protein stability index (san1∆): 3.19 ± 0.047
protein stability index (ubr1∆): 2.96 ± 0.052

RRFNSSIGRTAQGKEFG [RPL17A]
protein stability index (doa10∆): 3.03 ± 0.078
protein stability index (pdr5∆): 2.96 ± 0.089
protein stability index (san1∆): 2.95 ± 0.098
protein stability index (ubr1∆): 2.89 ± 0.07

AIRRDARYNWICNPVHK [RPL15B]
protein stability index (doa10∆): 3.03 ± 0.16
protein stability index (pdr5∆): 3.38 ± 0.13
protein stability index (san1∆): 3.37 ± 0.13
protein stability index (ubr1∆): 3.21 ± 0.081

SKKGKPTVNKKPKNKKK [SRP72]
protein stability index (doa10∆): 2.73 ± 0.15
protein stability index (pdr5∆): 2.68 ± 0.11
protein stability index (san1∆): 2.45 ± 0.12
protein stability index (ubr1∆): 2.9 ± 0.098

AVIAAIMQEAGLRAVRK [RPT3]
protein stability index (pdr5∆): 1.15 ± 0.19

IMKFQSLSDNDLAVCAT [ECM29]
protein stability index (doa10∆): 2.03 ± 0.076
protein stability index (pdr5∆): 2.46 ± 0.067
protein stability index (san1∆): 2.69 ± 0.062
protein stability index (ubr1∆): 2.77 ± 0.064

NIKSSISNGNLATGPNL [YOR098C/NUP1]
protein stability index (doa10∆): 2.77 ± 0.09
protein stability index (pdr5∆): 3.18 ± 0.084
protein stability index (san1∆): 2.99 ± 0.11
protein stability index (ubr1∆): 2.89 ± 0.065

TISKTVSSTIPRETIPF [FAS2]
protein stability index (doa10∆): 2.96 ± 0.072
protein stability index (pdr5∆): 2.96 ± 0.084
protein stability index (san1∆): 2.75 ± 0.11
protein stability index (ubr1∆): 2.71 ± 0.052

VPATAAPGTEAGIVPVS [SWI1]
protein stability index (doa10∆): 3.1 ± 0.069
protein stability index (pdr5∆): 3 ± 0.084
protein stability index (san1∆): 3.14 ± 0.066
protein stability index (ubr1∆): 3.15 ± 0.07

GMGIGFIDHHAAIRQPT [POP1]
protein stability index (pdr5∆): 2.94 ± 0.086
protein stability index (ubr1∆): 2.49 ± 0.15
